Our source for the Kd values is patent publication US20150086564A1 (CENTRE NATIONAL DE LA RECHERCHE SCIENTIFIQUE CNRS, published 2015).

The target of assay [1] is T1, recombinant human sPLA2-IIA N1A mutant (human, UniProt P14555 22-144).
T1 construct: also called N1A sPLA2-IIA mutant
T1 sequence: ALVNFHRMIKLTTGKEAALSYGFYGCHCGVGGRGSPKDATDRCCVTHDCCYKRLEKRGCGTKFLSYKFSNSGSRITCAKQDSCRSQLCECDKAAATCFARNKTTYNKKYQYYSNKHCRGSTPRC
Nature of the assay: indirect ELISA on coated sPLA2-IIA N1A (50 ng/well), one-site saturation fit, relative Kd. (In an ELISA, binding on a coated surface is turned into a signal by an enzyme label.)

The target in assay [2] is T1, recombinant human sPLA2-IIA N1A mutant. Nature of the assay: indirect ELISA on coated sPLA2-IIA N1A, anti-mouse IgG-HRP detection, one-site saturation fit.
For assay [3] the target is unchanged. The assay can be described thus: indirect ELISA on coated sPLA2-IIA N1A, streptavidin-HRP detection, one-site saturation fit.

B1: monoclonal anti-sPLA2-IIA antibody #9C8 (antibody, IgG1, V domains shown)
VH: DVELVESGGGLVKLGGSLKLSCAASGFTFSSYYMSWVRQTPEKRLELVAAINSNGGSTYYPDTVKGRFTISRDNAKNTLYLQMSSLKSEDTALYYCARQGYGNFFDYWGQGTTLTVSS
VL: DVVMTQTPLSLPVSLGDQASISCRSSQSIVHSNGNTYLYWYLQKPGQSPKLLIYRVSNRFSGVPDRFSGSGSGTDFTLKISRVEAEDMGVYYCFQGTHVPRTFGGGTNLEIKR
notes: also called 9C8 antibody
The term Kd denotes the free concentration of one partner at which half of the binding sites on the other are occupied at equilibrium, for simple one-to-one binding. Turning to B1, the Kd was 1.71 nM in assay [1] and 1.17 nM in assay [2].

B2: biotinylated monoclonal antibody #9C8 (antibody, mouse IgG1, V domains shown)
VH: B1 VH
VL: B1 VL
modifications: biotinylated (Pierce kit ref. 21435), sites not stated
notes: also called biotinylated #9C8
For B2, the Kd in assay [3] is 3.34 nM.

B3: monoclonal anti-sPLA2-IIA antibody #6G2 (antibody, IgG1, V domains shown)
VH: QVQLQQSGAELVKPGASVKLSCKASGYTFTSYDINWVRQRPEQGLEWIGWIFPGDGSTEYNEKFKGKATLTTDKSSSTAYMQLSRLTSEDSAVYFCARWGITAFPLFDYWGQGTALTVSS
VL: DIVLTQSPASLAVSLGQRATISCRASESVDYDGDSYMNWYQQKPGQPPKLLIYAASNLESGIPARFSGSGSGTDFTLNIHPVEEEDAATYYCLQSNEAPWTFGGGTKLEIKR
notes: also called 6G2 antibody
For B3, the Kd in assay [1] was found to be 0.124 nM; in assay [2] it was 0.0817 nM.

B4: biotinylated monoclonal antibody #6G2 (antibody, mouse IgG1, V domains shown)
VH: B3 VH
VL: B3 VL
modifications: biotinylated (Pierce kit ref. 21435), sites not stated
notes: also called #6G2-Biot; 6G2-biot
For the molecule B4, in assay [3], the Kd worked out at 0.22 nM.
